Source: patent publication US10064928B2, “Peptides and combination of peptides for use in immunotherapy against CLL and other cancers” (IMMATICS BIOTECHNOLOGIES GMBH, priority 2015, dated 2018)

Target: HLA-A*02:01 (Homo sapiens, UniProt P04439, D140Y/D185E/D98H/E176V/E277Q/G131W/G231S/I119V/I121R/I166T/I218V/L300P/L318F/N151K/N90K/P208A/P217A/Q86G/Q94H/R138H/R169H/T345S)
Assay: MHC binding assay (UV-ligand exchange, beta2m ELISA)
Conditions: binding of HLA-class I restricted peptides to HLA-A*02:01, β2m ELISA
Description: Candidate peptides for T cell based therapies according to the present invention were further tested for their MHC binding capacity (affinity). The individual peptide-MHC complexes were produced by UV-ligand exchange, where a UV-sensitive peptide is cleaved upon UV-irradiation, and exchanged with the peptide of interest as analyzed. Only peptide candidates that can effectively bind and stabilize the peptide-receptive MHC molecules prevent dissociation of the MHC complexes. To determine the yield of the exchange reaction, an ELISA was performed based on the detection of the light chain (β2m) of stabilized MHC complexes. The assay was performed as generally described in Rodenko et al. (Rodenko et al., 2006).
96 well MAXISorp plates (NUNC) were coated over night with 2 ug/ml streptavidin in PBS at room temperature, washed 4× and blocked for 1 h at 37° C. in 2% BSA containing blocking buffer. Refolded HLA-A*02:01/MLA-001 monomers served as standards, covering the range of 15-500 ng/ml. Peptide-MHC monomers of the UV-exchange reaction were diluted 100 fold in blocking buffer. Samples were incubated for 1 h at 37° C., washed four times, incubated with 2 ug/ml HRP conjugated anti-β2m for 1 h at 37° C., washed again and detected with TMB solution that is stopped with […]. Absorption was measured at 450 nm. Candidate peptides that show a high exchange yield (preferably higher than 50%, most preferred higher than 75%) are generally preferred for a generation and production of antibodies or fragments thereof, and/or T cell receptors or fragments thereof, as they show sufficient avidity to the MHC molecules and prevent dissociation of the MHC complexes.

Substance	Peptide Exchange (MHC class I binding score, peptide exchange yield)
3 (VIAELPPKV; listed as Homo sapiens) [compound 3]	“++” (≥20% = ++)
4 (VIAELPPKVSV; listed as Homo sapiens) [compound 4]	“+++” (≥50 = +++)
6 (ALDTLEDDMTI; listed as Homo sapiens) [compound 6]	“+++” (≥50 = +++)
7 (ALLERTGYTL; listed as Homo sapiens) [compound 7]	“+++” (≥50 = +++)
8 (ALAASALPALV; listed as Homo sapiens) [compound 8]	“+++” (≥50 = +++)
9 (ALCDTLITV; listed as Homo sapiens) [compound 9]	“+++” (≥50 = +++)
10 (FVYGESVEL; listed as Homo sapiens) [compound 10]	“+++” (≥50 = +++)
11 (ALFTFSPLTV; listed as Homo sapiens) [compound 11]	“+++” (≥50 = +++)
12 (ALGEDEITL; listed as Homo sapiens) [compound 12]	“+++” (≥50 = +++)
13 (VVDGMPPGV; listed as Homo sapiens) [compound 13]	“+++” (≥50 = +++)
14 (ALLRLLPGL; listed as Homo sapiens) [compound 14]	“+++” (≥50 = +++)
15 (ALPEVSVEA; listed as Homo sapiens) [compound 15]	“+++” (≥50 = +++)
16 (ALPGGAAVAAV; listed as Homo sapiens) [compound 16]	“++++” (≥75% = ++++)
18 (LLGEFSIKM; listed as Homo sapiens) [compound 18]	“+++” (≥50 = +++)
19 (QVMEKLAAV; listed as Homo sapiens) [compound 19]	“+++” (≥50 = +++)
20 (ALVDPGPDFVV; listed as Homo sapiens) [compound 20]	“+++” (≥50 = +++)
21 (ALWAGLLTL; listed as Homo sapiens) [compound 21]	“+++” (≥50 = +++)
22 (ALWDPVIEL; listed as Homo sapiens) [compound 22]	“+++” (≥50 = +++)
23 (ALYLTEVFL; listed as Homo sapiens) [compound 23]	“++++” (≥75% = ++++)
24 (AMAGDVVYA; listed as Homo sapiens) [compound 24]	“+++” (≥50 = +++)
25 (ATYSGLESQSV; listed as Homo sapiens) [compound 25]	“++” (≥20% = ++)
27 (AVLGLVWLL; listed as Homo sapiens) [compound 27]	“+++” (≥50 = +++)
28 (AVLHLLLSV; listed as Homo sapiens) [compound 28]	“++” (≥20% = ++)
29 (AVLQAVTAV; listed as Homo sapiens) [compound 29]	“+++” (≥50 = +++)
30 (ELLEGSEIYL; listed as Homo sapiens) [compound 30]	“+++” (≥50 = +++)
31 (ELMHGVAGV; listed as Homo sapiens) [compound 31]	“+++” (≥50 = +++)
34 (YLPYIFPNI; listed as Homo sapiens) [compound 34]	“+++” (≥50 = +++)
35 (FILPSSLYL; listed as Homo sapiens) [compound 35]	“+++” (≥50 = +++)
